# Assay results from the supplement of paper PMC7877785.
# ± gives the uncertainty stated by the source.
# Test: self-splicing fitness, log relative to wild type (ln ratio); higher = more splicing; Tetrahymena group I intron in knt gene, E. coli kanamycin selection, DiMSum; sequences stand for … in CUCUCU…GGAGGGAAAAGUUAUCAGGCAUGCACCUGGUAGCUAGUCUUUAAACCAAUAGAUUGCAUCGGUUUAAAAGGCAAGACCGUCAAAUUGCGGGAAAGGGGUCAACAGCCGUUCAGUACCAAGUCUCAGGGGAAACUUUGAGAUGGCCUUGCAAAGGGUAUGGUAAUAAGCUGACGGACAUGGUCCUAACCACGCAGCCAAGUCCUAAGUCAACAGAUCUUCUGUUGAUAUGGAUGCAGUUCACAGACUAAAUGUCGGUCGGGGAAGAUGUAUUCUUCUCAUAAGAUAUAGUCGGACCUCUCCUUAAUGGGAGCUAGCGGAUGAAGUGAUGCAACACUGGAGCCGCUGGGAACUAAUUUGUAUGCGAAAGUAUAUUGAUUAGUUUUGGAGUACUCGUGGUCG
# Method in brief: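 A randomised library covering all eight P1ex-region intron nucleotides was built with the intron in the knt kanamycin-resistance gene on pET-22b(+) and held in E. coli BL21(DE3). Cells were grown overnight at 37°C or 30°C on LB agar, with or without 25 μg/mL kanamycin, plus 100 μg/mL carbenicillin, 50 μM IPTG and 0.2% rhamnose, and pooled colonies were amplicon-sequenced on an Illumina HiSeq 2500. DiMSum fitness is the error-weighted combination of wild-type-normalised replicate fold changes, kanamycin versus none.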
Sequence,self-splicing fitness (ln) (30 °C),self-splicing fitness (ln) (37 °C)
CCCGAGCAAUAUUACGGGAG,-3.25 ± 0.24,-1.5 ± 0.19
UUUUAGCAAUAUUACGGCCU,-1.53 ± 0.26,-1.87 ± 0.33
CACAAGCAAUAUUACGUAAC,-2.43 ± 0.095,-0.662 ± 0.14
UCCGAGCAAUAUUACGGCCA,-0.297 ± 0.1,-0.233 ± 0.12
GUCCAGCAAUAUUACGUUGU,-0.537 ± 0.051,0.244 ± 0.066
UCCCAGCAAUAUUACGACGG,-2.95 ± 0.15,-2.15 ± 0.14
UCUGAGCAAUAUUACGCCAA,,-1.51 ± 0.32
AUGCAGCAAUAUUACGACGC,-1.48 ± 0.11,-1.32 ± 0.12
GUGUAGCAAUAUUACGCGGG,-3.73 ± 0.2,-2.75 ± 0.2
GCGAAGCAAUAUUACGGUCG,-3.65 ± 0.32,-2.77 ± 0.4
GUAGAGCAAUAUUACGUUUG,-2.91 ± 0.24,-2.23 ± 0.29
GACAAGCAAUAUUACGAGAU,-3.73 ± 0.23,-2.78 ± 0.23
GAUUAGCAAUAUUACGCGAU,-3.61 ± 0.37,-1.27 ± 0.44
CCCUAGCAAUAUUACGUCAC,-2.55 ± 0.24,-1.44 ± 0.34
GCAGAGCAAUAUUACGAUUA,-2.28 ± 0.22,0.0469 ± 0.18
CAUUAGCAAUAUUACGCUAC,-3.99 ± 0.4,-2.13 ± 0.46
ACAAAGCAAUAUUACGUGCU,-0.981 ± 0.069,-0.486 ± 0.082
CCCGAGCAAUAUUACGUAAG,-3.63 ± 0.2,-2.77 ± 0.18
CCUUAGCAAUAUUACGAAGA,-2.58 ± 0.27,-3.3 ± 0.26
CAAGAGCAAUAUUACGUCUU,-3.62 ± 0.25,-1.46 ± 0.11
AACCAGCAAUAUUACGGGAA,-1.76 ± 0.073,-1.01 ± 0.065
CCCGAGCAAUAUUACGAAAG,-3.74 ± 0.27,-1.7 ± 0.36
UCACAGCAAUAUUACGGGCU,-4 ± 0.18,-3.47 ± 0.16
UGCCAGCAAUAUUACGAGAC,-3.05 ± 0.2,-2.05 ± 0.26

Sequence,self-splicing fitness (ln) (30 °C),self-splicing fitness (ln) (37 °C)
CAGGAGCAAUAUUACGUUCG,-0.032 ± 0.12,0.338 ± 0.15
CUCGAGCAAUAUUACGUAUC,-4.31 ± 0.3,-2.78 ± 0.29
UCAGAGCAAUAUUACGCCAA,-2.84 ± 0.25,-1.74 ± 0.29
CAGGAGCAAUAUUACGGAGU,-2.74 ± 0.17,-2.21 ± 0.25
ACGGAGCAAUAUUACGGAGG,-4.47 ± 0.46,-1.69 ± 0.19
AACCAGCAAUAUUACGUAUC,-2.57 ± 0.097,-1.39 ± 0.1
UCUCAGCAAUAUUACGAGUU,-2.32 ± 0.11,-1.13 ± 0.099
ACGCAGCAAUAUUACGGUCC,-2.36 ± 0.14,-1.01 ± 0.13
ACCCAGCAAUAUUACGUGCU,-4.5 ± 0.23,-1.67 ± 0.12
CCAUAGCAAUAUUACGAAAU,-2.98 ± 0.37,
AAGAAGCAAUAUUACGCUGC,-2.58 ± 0.32,-1.75 ± 0.35
CAAUAGCAAUAUUACGUGAA,-4.02 ± 0.37,-1.7 ± 0.22
GCACAGCAAUAUUACGGGCA,-1.84 ± 0.11,-0.886 ± 0.094
CAAUAGCAAUAUUACGAAUG,-1.11 ± 0.076,-0.357 ± 0.098
CAUGAGCAAUAUUACGAAAG,-1.36 ± 0.11,-1.18 ± 0.14
UUCAAGCAAUAUUACGUGGA,-2.17 ± 0.17,-2.52 ± 0.15
GCCGAGCAAUAUUACGCAGA,-3.39 ± 0.47,-2.39 ± 0.29
AUUCAGCAAUAUUACGUUUG,-2.76 ± 0.094,-1.54 ± 0.1
GUCCAGCAAUAUUACGCCUA,-0.215 ± 0.095,-0.244 ± 0.093
CGUCAGCAAUAUUACGGGGC,-2.73 ± 0.2,-3.05 ± 0.32
CCUUAGCAAUAUUACGCUGG,-1.57 ± 0.18,-2.43 ± 0.3
AGAGAGCAAUAUUACGGAAC,-2.74 ± 0.38,-1.83 ± 0.4
CUAUAGCAAUAUUACGCAAC,,-2.26 ± 0.35
GUCCAGCAAUAUUACGCGUG,-1.04 ± 0.063,-0.469 ± 0.068
